Experimental findings from the supplement of paper PMC5998384 are described below.

The subject of series [1] is HeLa Kyoto. As to the kind of experiment: thermal stability score vs G1/S (z-score of summed log2 fold changes over temperatures); higher = more thermally stable than in G1/S.
Series [2] has as its system HeLa Kyoto. Put plainly: melting temperature (median over replicates), in situ; higher = more thermally stable.
Series [3] deals with HeLa Kyoto. As to the kind of experiment: solubility in G1/S (NP-40 vs SDS abundance) (log2 ratio); higher = more soluble. Particulars: cell cycle stage: G1/S.
The subject of series [4] is HeLa Kyoto. Put plainly: solubility change mitosis vs G1/S (difference of NP-40 vs SDS log2 ratios) (log2 ratio difference); higher = more soluble in mitosis.
[5] abbreviates: cell cycle stage: early G1 (4.5 h after nocodazole release).
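Throughout, for melting temperature (median over replicates), in situ: HeLa Kyoto cells synchronized by double thymidine or nocodazole block, proteins quantified by TMT10plex mass spectrometry, three independent biological replicates.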
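Throughout, for solubility change mitosis vs G1/S (difference of NP-40 vs SDS log2 ratios): synchronized HeLa Kyoto cells (double thymidine block for G1/S, nocodazole release for mitosis), protein amounts in NP-40 versus SDS lysates quantified by mass spectrometry, three biological replicates.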
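Throughout, for solubility in G1/S (NP-40 vs SDS abundance): HeLa Kyoto cells arrested at G1/S by double thymidine block, proteins quantified by TMT10plex mass spectrometry in mild NP-40 versus SDS extracts, three biological replicates.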
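Throughout, for thermal stability score vs G1/S (z-score of summed log2 fold changes over temperatures): synchronized HeLa Kyoto cells, proteins quantified by TMT10plex mass spectrometry, three biological replicates, mitosis taken 0.5 h after nocodazole release, G1/S directly after double thymidine block.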

On to “MESSRGRPGPETDLLAVAEHQALVFGGGPGRTSSEPPAGLRVSGEEETENVGGANRHPRTSPKTSSCGVVHRPEREALENEPGPQGTLSGAGSRRGAPGAEHEPSLSSRHKNPAPPEGKPSSGRDCRRGGPGGGMDVEQQEEEDNDEEAAAGSRAGRSFSSRLQDSRSLDGLSEACGGAGSSGSAESGAGGGRRATISSPLELEGTVSRHGDLTHFVANNLQLKIRLSGAPPPPPSAPARPCPAPAPTPTPAIPPIDPEVLRDLERLSRELGGRVDRLLRGLGGAVQELTALSVGCIQTYRDAVDSLGEAVDMSIKGMYTLLARCEELERALQPVQGLARQVRDIRRTLEVLEALCK [C17ORF59]”, for which the thermal stability score in the series with HeLa Kyoto [1] (setting [5]) is -2.61; with HeLa Kyoto [1] (cell cycle stage: mitosis), -1.39. Also, the melting temperature with HeLa Kyoto [2] (cell cycle stage: G1/S) was 53.5 °C; in the series on HeLa Kyoto [2] (cell cycle stage: mitosis), 53.8 °C. In addition, in the series with HeLa Kyoto [3], the “solubility in G1/S (log2)” value was determined as 0.166. Besides, the “solubility change mitosis (log2)” value in the series on HeLa Kyoto [4] was -0.0139.
For “METLESELTCPICLELFEDPLLLPCAHSLCFNCAHRILVSHCATNESVESITAFQCPTCRHVITLSQRGLDGLKRNVTLQNIIDRFQKASVSGPNSPSETRRERAFDANTMTSAEKVLCQFCDQDPAQDAVKTCVTCEVSYCDECLKATHPNKKPFTGHRLIEPIPDSHIRGLMCLEHEDEKVNMYCVTDDQLICALCKLVGRHRDHQVAALSERYDKLKQNLESNLTNLIKRNTELETLLAKLIQTCQHVEVNASRQEAKLTEECDLLIEIIQQRRQIIGTKIKEGKVMRLRKLAQQIANCKQCIERSASLISQAEHSLKENDHARFLQTAKNITERVSMATASSQVLIPEINLNDTFDTFALDFSREKKLLECLDYLTAPNPPTIREELCTASYDTITVHWTSDDEFSVVSYELQYTIFTGQANVVSLCNSADSWMIVPNIKQNHYTVHGLQSGTKYIFMVKAINQAGSRSSEPGKLKTNSQPFKLDPKSAHRKLKVSHDNLTVERDESSSKKSHTPERFTSQGSYGVAGNVFIDSGRHYWEVVISGSTWYAIGLAYKSAPKHEWIGKNSASWALCRCNNNWVVRHNSKEIPIEPAPHLRRVGILLDYDNGSIAFYDALNSIHLYTFDVAFAQPVCPTFTVWNKCLTIITGLPIPDHLDCTEQLP [MID1]”, the thermal stability score in the series on HeLa Kyoto [1] (setting [5]) was -0.257; in the series with HeLa Kyoto [1] (cell cycle stage: mitosis) it was -0.0362. Moreover, the melting temperature with HeLa Kyoto [2] (cell cycle stage: G1/S) and in the series on HeLa Kyoto [2] (cell cycle stage: mitosis) was 50.6 °C each time. Also, the “solubility in G1/S (log2)” value with HeLa Kyoto [3] was -0.197. Besides, the “solubility change mitosis (log2)” value in the series on HeLa Kyoto [4] was -0.0991.
Turning to “METPSQRRATRSGAQASSTPLSPTRITRLQEKEDLQELNDRLAVYIDRVRSLETENAGLRLRITESEEVVSREVSGIKAAYEAELGDARKTLDSVAKERARLQLELSKVREEFKELKARNTKKEGDLIAAQARLKDLEALLNSKEAALSTALSEKRTLEGELHDLRGQVAKLEAALGEAKKQLQDEMLRRVDAENRLQTMKEELDFQKNIYSEELRETKRRHETRLVEIDNGKQREFESRLADALQELRAQHEDQVEQYKKELEKTYSAKLDNARQSAERNSNLVGAAHEELQQSRIRIDSLSAQLSQLQKQLAAKEAKLRDLEDSLARERDTSRRLLAEKEREMAEMRARMQQQLDEYQELLDIKLALDMEIHAYRKLLEGEEERLRLSPSPTSQRSRGRASSHSSQTQGGGSVTKKRKLESTESRSSFSQHARTSGRVAVEEVDEEGKFVRLRNKSNEDQSMGNWQIKRQNGDDPLLTYRFPPKFTLKAGQVVTIWAAGAGATHSPPTDLVWKAQNTWGCGNSLRTALINSTGEEVAMRKLVRSVTVVEDDEDEDGDDLLHHHHGSHCSSSGDPAEYNLRSRTVLCGTCGQPADKASASGSGAQVGGPISSGSSASSVTVTRSYRSVGGSGGGSFGDNLVTRSYLLGNSSPRTQSPQNCSIM [LMNA]”, the thermal stability score in the series with HeLa Kyoto [1] (setting [5]) is -9.6; with HeLa Kyoto [1] (cell cycle stage: mitosis), -5.85. Moreover, the values for the melting temperature in the series with HeLa Kyoto [2] (cell cycle stage: G1/S) and with HeLa Kyoto [2] (cell cycle stage: mitosis) were 54.8 °C and 52.9 °C, respectively. The “solubility in G1/S (log2)” value in the series on HeLa Kyoto [3] was -1.05. The “solubility change mitosis (log2)” value in the series with HeLa Kyoto [4] is 1.64.
For “MEVAVEKAVAAAAAASAAASGGPSAAPSGENEAESRQGPDSERGGEAARLNLLDTCAVCHQNIQSRAPKLLPCLHSFCQRCLPAPQRYLMLPAPMLGSAETPPPVPAPGSPVSGSSPFATQVGVIRCPVCSQECAERHIIDNFFVKDTTEVPSSTVEKSNQVCTSCEDNAEANGFCVECVEWLCKTCIRAHQRVKFTKDHTVRQKEEVSPEAVGVTSQRPVFCPFHKKEQLKLYCETCDKLTCRDCQLLEHKEHRYQFIEEAFQNQKVIIDTLITKLMEKTKYIKFTGNQIQNRIIEVNQNQKQVEQDIKVAIFTLMVEINKKGKALLHQLESLAKDHRMKLMQQQQEVAGLSKQLEHVMHFSKWAVSSGSSTALLYSKRLITYRLRHLLRARCDASPVTNNTIQFHCDPSFWAQNIINLGSLVIEDKESQPQMPKQNPVVEQNSQPPSGLSSNQLSKFPTQISLAQLRLQHMQQQVMAQRQQVQRRPAPVGLPNPRMQGPIQQPSISHQQPPPRLINFQNHSPKPNGPVLPPHPQQLRYPPNQNIPRQAIKPNPLQMAFLAQQAIKQWQISSGQGTPSTTNSTSSTPSSPTITSAAGYDGKAFGSPMIDLSSPVGGSYNLPSLPDIDCSSTIMLDNIVRKDTNIDHGQPRPPSNRTVQSPNSSVPSPGLAGPVTMTSVHPPIRSPSASSVGSRGSSGSSSKPAGADSTHKVPVVMLEPIRIKQENSGPPENYDFPVVIVKQESDEESRPQNANYPRSILTSLLLNSSQSSTSEETVLRSDAPDSTGDQPGLHQDNSSNGKSEWLDPSQKSPLHVGETRKEDDPNEDWCAVCQNGGELLCCEKCPKVFHLSCHVPTLTNFPSGEWICTFCRDLSKPEVEYDCDAPSHNSEKKKTEGLVKLTPIDKRKCERLLLFLYCHEMSLAFQDPVPLTVPDYYKIIKNPMDLSTIKKRLQEDYSMYSKPEDFVADFRLIFQNCAEFNEPDSEVANAGIKLENYFEELLKNLYPEKRFPKPEFRNESEDNKFSDDSDDDFVQPRKKRLKSIEERQLLK [TRIM24]”, the thermal stability score in the series on HeLa Kyoto [1] (setting [5]) came to 2.07; in the series with HeLa Kyoto [1] (cell cycle stage: mitosis), 4.99. The values for the melting temperature in the series with HeLa Kyoto [2] (cell cycle stage: G1/S) and in the series on HeLa Kyoto [2] (cell cycle stage: mitosis) were 48.8 °C and 50.2 °C, respectively. Besides, the “solubility in G1/S (log2)” value with HeLa Kyoto [3] was -0.0643. The “solubility change mitosis (log2)” value with HeLa Kyoto [4] was -0.117.
Regarding “MEVKRLKVTELRSELQRRGLDSRGLKVDLAQRLQEALDAEMLEDEAGGGGAGPGGACKAEPRPVAASGGGPGGDEEEDEEEEEEDEEALLEDEDEEPPPAQALGQAAQPPPEPPEAAAMEAAAEPDASEKPAEATAGSGGVNGGEEQGLGKREEDEPEERSGDETPGSEVPGDKAAEEQGDDQDSEKSKPAGSDGERRGVKRQRDEKDEHGRAYYEFREEAYHSRSKSPLPPEEEAKDEEEDQTLVNLDTYTSDLHFQVSKDRYGGQPLFSEKFPTLWSGARSTYGVTKGKVCFEAKVTQNLPMKEGCTEVSLLRVGWSVDFSRPQLGEDEFSYGFDGRGLKAENGQFEEFGQTFGENDVIGCFANFETEEVELSFSKNGEDLGVAFWISKDSLADRALLPHVLCKNCVVELNFGQKEEPFFPPPEEFVFIHAVPVEERVRTAVPPKTIEECEVILMVGLPGSGKTQWALKYAKENPEKRYNVLGAETVLNQMRMKGLEEPEMDPKSRDLLVQQASQCLSKLVQIASRTKRNFILDQCNVYNSGQRRKLLLFKTFSRKVVVVVPNEEDWKKRLELRKEVEGDDVPESIMLEMKANFSLPEKCDYMDEVTYGELEKEEAQPIVTKYKEEARKLLPPSEKRTNRRNNRNKRNRQNRSRGQGYVGGQRRGYDNRAYGQQYWGQPGNRGGYRNFYDRYRGDYDRFYGRDYEYNRYRDYYRQYNRDWQSYYYHHPQDRDRYYRNYYGYQGYR [HNRNPUL2]”, the results for the thermal stability score with HeLa Kyoto [1] (setting [5]) and in the series with HeLa Kyoto [1] (cell cycle stage: mitosis) were 0.965 and 3.42, respectively. Also, the melting temperature with HeLa Kyoto [2] (cell cycle stage: G1/S) worked out at 49.2 °C; with HeLa Kyoto [2] (cell cycle stage: mitosis), 50.1 °C. Besides, the “solubility in G1/S (log2)” value in the series with HeLa Kyoto [3] is -0.462. Also, the “solubility change mitosis (log2)” value in the series on HeLa Kyoto [4] was determined as 0.258.
“MEVMNLMEQPIKVTEWQQTYTYDSGIHSGANTCVPSVSSKGIMEEDEACGRQYTLKKTTTYTQGVPPSQGDLEYQMSTTARAKRVREAMCPGVSGEDSSLLLATQVEGQATNLQRLAEPSQLLKSAIVHLINYQDDAELATRALPELTKLLNDEDPVVVTKAAMIVNQLSKKEASRRALMGSPQLVAAVVRTMQNTSDLDTARCTTSILHNLSHHREGLLAIFKSGGIPALVRMLSSPVESVLFYAITTLHNLLLYQEGAKMAVRLADGLQKMVPLLNKNNPKFLAITTDCLQLLAYGNQESKLIILANGGPQALVQIMRNYSYEKLLWTTSRVLKVLSVCPSNKPAIVEAGGMQALGKHLTSNSPRLVQNCLWTLRNLSDVATKQEGLESVLKILVNQLSVDDVNVLTCATGTLSNLTCNNSKNKTLVTQNSGVEALIHAILRAGDKDDITEPAVCALRHLTSRHPEAEMAQNSVRLNYGIPAIVKLLNQPNQWPLVKATIGLIRNLALCPANHAPLQEAAVIPRLVQLLVKAHQDAQRHVAAGTQQPYTDGVRMEEIVEGCTGALHILARDPMNRMEIFRLNTIPLFVQLLYSSVENIQRVAAGVLCELAQDKEAADAIDAEGASAPLMELLHSRNEGTATYAAAVLFRISEDKNPDYRKRVSVELTNSLFKHDPAAWEAAQSMIPINEPYGDDMDATYRPMYSSDVPLDPLEMHMDMDGDYPIDTYSDGLRPPYPTADHMLA [JUP]”: the values for the thermal stability score in the series on HeLa Kyoto [1] (setting [5]) and with HeLa Kyoto [1] (cell cycle stage: mitosis) were -2.2 and -2.86, respectively. For the same sequence, the melting temperature worked out at 53.5 °C in the series with HeLa Kyoto [2] (cell cycle stage: G1/S) and 52.8 °C in the series with HeLa Kyoto [2] (cell cycle stage: mitosis). For the same sequence, the “solubility in G1/S (log2)” value in the series on HeLa Kyoto [3] is -0.169. The “solubility change mitosis (log2)” value in the series with HeLa Kyoto [4] was -0.103.
